Data on 21 sequences can be found in a protein production outcome set (Wang et al. 2014).

The nature of the series: label from the status in PepcDB records.
For the sequence “MSSTSFTDLLGSSGVDCYEDDEDLRVSGSSFGGYYPERTGSGLPKFKTAQPPPLPISQSSHNFTFSDYLDSPLLLSSSHSLISPTTGTFPLQGFNGTTNNHSDFPWQLQSQPSNASSALQETYGVQDHEKKQEMIPNEIATQNNNQSFGTERQIKIPAYMVSRNSNDGYGWRKYGQKQVKKSENPRSYFKCTYPDCVSKKIVETASDGQITEIIYKGGHNHPKPEFTKRPSQSSLPSSVNGRRLFNPASVVSEPHDQSENSSISFDYSDLEQKSFKSEYGEIDEEEEQPEMKRMKREGEDEGMSIEVSKGVKEPRVVVQTISDIDVLIDGFRWRKYGQKVVKGNTNPRSYYKCTFQGCGVKKQVERSAADERAVLTTYEGRHNHDIPTALRRS”, the protein production entry was “failed”.

With “MSSWMMVPVVFLTAYSDPETIGRARRAGAYGYLLKPYDDRKLRAAVETALRRYRADVRDILKVHETAVRGPVPGVLIVEDEAIIAADLKQKLENAGFRVLGVHDTGEGAIAAASELEPDVVIMDVYIRGEMDGIKAAERIQERYGIPVIYLTAYSDDATLSRILESEPYGYLLKPLNTEQLQAEIEVVLENLRTTEDYSRRVREVLVTKAEEMKIEKTGIFFVSSVITALAVYGFITGSMTWLMYTLFIPTVYSLMHLAFSFGEPEKPSSSAMPMVSIIVPANNEENTIEGCVETLSALDYHVNGERNYEIIVVNDGSTDRTGEILEGLLRKHRHLKAVTRKAPFAFNGRVMPSMMVSPLPRGIL”, the protein production entry was “failed”.

“MSSWRKPGPIPRDLSVEIDSSTERRIIAKLLPGVMGPGFRQDDAGEAAMSDPSAHWNNVYATKGETEVSWFQESPAISLDMIRSANVDRGAGIIDIGGGASRLVDALLQDGYRNLAVLDLSANALDAAKRRIGPAAASVDWIVADATTWRPARSYEVWHDRAAFHFLTDPRDRAAYVERLRSAVAAGGHVIIATFALDGPEKCSGLPVQRHDSKSLSTELGPDFELIETRSETHHTPWKSTQAFQFSRFRRRGS”: the protein production result is listed as “failed”.

For the sequence “MSSYSNELLMLIFRSMLCKQVLIFFAYSGLYYLVTYFMDKKIQHQKQFLLKLGLVKLKKRNKTRWEKIRWRMQLCLIVSILVLVVSTFVLNPDDQYILLVIYVMKLATFTSFAIAFVDSLGPIKEIQQLIVGAQSSDTLDSDKKVLTVTIFKKIRWMLILYQVLKVPALIIILTLSVDY”, the protein production entry is recorded as “failed”.

Take “MSTAAETTGGDIEPWEEVTPDAARRLLVAAVEAFAERGYHATTTRDIAGRAGMSPAALYIHYKTKEELLHRISRIGHTRAVAILRSAAQGEGSAAERLADAVSSFVRWHAGRRTTARVVQYELDALGPEAREEILTLRRQCDAAVRGIIDDGVAAGEFDVPDVKGTTLAVLSLCIDVARWFNVNGPRTPDEVGALYADLVLRMVGAEPSGATAQR”: the protein production result is recorded as “not failed”.

Take “MSTDIDCIVIGAGVVGLAIARALAAGGHEVLVAEAAEGIGTGTSSRNSEVIHAGIYYPADSLKARLCVRGKHLLYEYCAARGVPHQRLGKLIVATSDAEASQLDSIARRAGANGVDDLQHIDGAAARRLEPALHCTAALVSPSTGIVDSHALMLAYQGDAESDGAQLVFHTPLIAGRVRPEGGFELDFGGAEPMTLSCRVLINAAGLHAPGLARRIEGIPRDSIPPEYLCKGSYFTLAGRAPFSRLIYPVPQHAGLGVHLTLDLGGQAKFGPDTEWIATEDYTLDPRRADVFYAAVRSYWPALPDGALAPGYTGIRPKISGPHEPAADFAIAGPASHGVAGLVNLYGIESPGLTASLAIAEETLARLAALEHHHHHH”: the protein production result is reported as “not failed”.

Take “MSTDNLLQPKLIEATLGDYPVIQNMARFYVYDMSRYCGFISEEWTCPPDGLYESYDFKIYFTDPERKAFLIQIDNELAGFALLNKFGIQAVDWSMGEFFILAKFQGKGIGQSVAHQLWRTHPGEWEISVIPENIPALSFWRQAVMTYTL”: the protein production entry is recorded as “not failed”.

Regarding “MSTDSVRSSTTGGSASGARTFCSLADLSTKKCVPCNAKDLRAMTEQSAQDLLQKVAGWDLANDNDTLKLHRSWRVKSFTKGLDFFQRVADIAESEGHHPDLHLVGWNNVKIEIWTHAIGGLTENDFILAAKINELQVEDLLRKKKVAK”, the protein production result is recorded as “failed”.

With “MSTDTSGVGVREIDAGALPTRYARGWHCLGVAKDYLEGKPHGVEAFGTKLVVFADSHGDLKVLDGYCRHMGGDLSEGTVKGDEVACPFHDWRWGGDGRCKLVPYARRTPRMARTRSWTTDVRSGLLFVWHDHEGNPPDPAVRIPEIPEAASDEWTDWRWNRILIEGSNCRDIIDNVTDMAHFFYIHFGLPTYFKNVFEGHIASQYLHNVGRPDVDDLGTSYGEAHLDSEASYFGPSFMINWLHNRYGNYKSESILINCHYPVTQNSFVLQWGVIVEKPKGMSEEMTDKLSRVFTEGVSKGFLQDVEIWKHKTRIDNPLLVEEDGAVYQLRRWYEQFYVDVADIKPEMVERFEIEVDTKRANEFWNAEVEKNLKSREVSDDVPAEQH”, the protein production result is recorded as “not failed”.

Consider “MSTFAFNLGGEFDKSFLSTPKAYGDVIKALPQNASKIELDYASVYDYDTDGCYATAAISPDGTTNPGLSLGGSPESVCRDVNRLENSNTYSRAKSNNGWTAIMYASYFEKDQSTSGPVALGHRHDWEHTIVWVKDSQVQYVTYSAHGNWYTNPRSNVRFDGNHPKIVYHKDGGSTHAFRLANSNDEPPENYYHQWLQLPMVGWNGYPSPNIREKLMTTNFGDATLEIKDGRFEKALANAKPPINFDPYAPELEDGGTYQIVSILNNSSVVDLNQADGNVQLWQNGNANNQKWKLVYDSNKSAYQIKNIANQNLVLTWNNLNGSNNVVATTNQNKEEQYWIPTEAGNGYYYVRNKKDQNKVLDVSGYGTANGTNVTVYNFHGGNNQTFQLSNVTGTLTREVESLYKAQPGQTSRSSNNFSLEHLAAGTKVRVVLEGAGATSLSFKIARDKSGTDPVIWSNVRDGSILTIPSGDDRKNLYIAGPPSGYTSNGTFKVKFYALPN”, for which the protein production entry is “failed”.

Regarding “MSTGATIVIDLGKTLSKVSLWDLDGRMLDRQVRPSIPLEIDGIRRLDAPDTGRWLLDVLSRYADHPVTTIVPVGHGAGIAALTDGRLAFPPLDYEQSIPEAVMADYRSQRDPFARTGSPALPDGLNIGSQLWWLDQLHPDVMANATLLPWAQYWAWFLTGRAVSEVTSLGCHSDLWDPQDGDFSPMAKRLGWAARFAPIVRAGDTVGALLPAIAERTGLSPDVQVLAGLHDSNAALLAARGFAEIADNEATVLSTGTWFIAMRLPATPVDTATLPEARDCLVNVDVHGRPVPSARFMGGREIETLIEIDTRRVDIKPDQPALLAAVPEVLRHGRMILPTLMRGFGPYPHGRFAWINRPEDWFERRAAACLYAALVADTALDLIGSTGRILVEGRFAEADVFVRALASLRPDCAVYTANAHNDVSFGALRLIDPGLRPQGELVRIEPLDTGSWADLDTYRNRWQAEVEAAKVEPITLEHHHHHH”, the protein production result is listed as “not failed”.

Regarding “MSTLISTPRTKMSPIRAEDWALFQRLHIEPSVISLCFDKPDERVLRDKFESRLASWTPECDHWLCLTIFDANTQQPIGITGFVLEEDKAEVGYLLLPEFHGQQFGTETLNALLHWAETTHDILRFSATVTEGNVASERVLTKCGFELSQVIPDAYQIGGKHYADKIYSRQK”, the protein production entry is given as “failed”.

On to “MSTNEITKRLPNLTSRRALLLYSLPVLVAIGVSHSLKESSLTKTIALNLPESQVVERILDATTAEVVTPPNFEYQIQAGDNLSTIFSQLGFGYSSLMKVMETDLNYLALDTLKPGNTLRFWRNDATGELEKMELQFSIADKVVYQLNSDGGYDFTDISIPGVWRQEPLVGVIQGSFSSSANRLGLSSAEISQVVSLLKEQVNFGRDLRAGDRFEVVRRSQTINGVSTGKNEIEAIKIYNRGREITAYLHTDGQFYNAKGESLQRAFQRYPVSRSWRISSGFNPNRLHPVTGRVAP”, for which the protein production entry is on record as “failed”.

“MSTPIDTYWRLRLTEVAESLRANNFAVSLVDSCEEAGRVFLDDLLPASGASSVSFGGSMTLVKCGVPEALRQRADLQLLDTFDKNLSAAEMYERRRQSLLVDMFLTGTNAVTMDGKLINLDMIGNRVGAINFGPRNVVLFVGRNKVVDTVEDGMRRIKEYASPVNAIRLDKKTPCKKTAQCMDCKSPDRICNVWTITEKCFPSGRVHVILINEDAGY”: the protein production entry is listed as “failed”.

For the sequence “MSTPRQILAAIFDMDGLLIDSEPLWDRAELDVMASLGVDISRRNELPDTLGLRIDMVVDLWYARQPWNGPSRQEVVEQVIARAISLVEETRPLLPGVREAVALCKEQGLLVGLASASPLHMLEKVLTMFDLRDSFDALASAEKLPYSKPHPQVYLDCAAKLGVDPLTCVALEDSVNGMIASKAARMRSIVVPAPEAQNDPRFVLANVKLSSLTELTAKDLLG”, the protein production entry is “not failed”.

Take “MSTPYRPAMHHAWRLLPLGMAVASPLLAAEPLNLDAVNVTGFSEQESASDYRAGRASIYGLDQALLLDTPASVSVFSEALIKDRQAKLLSDVLRNDASVGEGYAPVGYYENFVVRGFSLNAANSYRINGRSIAGEQNVALENKQQVELLKGLSGLQSGVSEPGGVINYQTKRAQD”: the protein production result was “failed”.

Turning to “MSTQENVQIVKDFFAAMGRGDKKGLLAVSAEDIEWIIPGEWPLAGTHRGHAALAALLQKASEMVEISYPEPPEFVAQGERVLVVGFATGRVKSTNRTFEDDWVFAITVRKSKVTSIREYIDTLALARATNFNAT”, the protein production result is recorded as “not failed”.

Regarding “MSTRPERERASTSTDAVLQATVALSAGHKPAFRGFVKDPPRARAHAAAMFVSNAREAEPFVAPDLSEIRVLVDRATVGVASVSLAHATVAAGAETVWHRLQATDEIYFVLSGRGLVSVGDESGEVGPGDAVWIPAGVPQKIRALGSVPLTFLCAWGPAYLPERDQRMGEAAVIGAWPLEHHHHHH”, the protein production entry was “not failed”.

“MSTVEKIQTFIILFAVTCGIVLGQFHLIHMYSEQFIVPFLFFMLYGLFLSIPLKEIKNGFRNLKFAGTSLTINFLWTPLLAWGLGALFLSDHPALWVGFIMLMVTPCTDWYLIFTEIAKGNVALSTAILPVNLILQVLLLPIYLFLFAGVMKTVAVSVLVESIVIVIVLPFLLAHATKFIMNKLKKAETLENKLIPFFSSAQIVFLSLAIVAMFASQGKYLLQNMNVVLLLLIPVLLFFIINFVLGQFIGRVMRLSYKDTVSLNLTTLARNSPVALAIAVTAFPNEPLIALALVIGPLIELPVLACVSQVLLLIKKKKQYT”: the protein production result was “failed”.

Turning to “MSTVNNHRVVIRRRKVRRGGHHGGSWKIAYADFITAMMAFFLVMWLISIVPREELKGIAEYFRMPLRVALTGGPSSSAETSAIPGGGQDPLRSQGDVRRAEGNRVEAQPMGDAERRDRHRLERLKVRLENLIEESPVLKNFRPQLLIDMTTEGLRIQIVDNQNRPMFATGSADVQPYMRDILRELGPVLNDLPNKISIAGHTDASQYARGERAYSNWELSADRANASRQELVAGGMHEGKVLRIQGLASSMSLVKDDPFAAVNRRISLVVLNASTQRRIENENAAAADVNARDAQGVGAALAGQLAASGSDGGAR”, the protein production entry is “failed”.

With “MSVCTAHHPMTSPLPPFPLQQRLSRRTLLRFITHTAGIALLNPIGLAQSAPRAGKPPASSSDFISRRPPQAQRRFVSAAVEQQLIHIKAKIADPELAWLFENCYPNTLDTTVSTGTRNGKPDTFIITGDIQALWLRDSAAQVQAYVPLARHDPALRRLFHGLIQRHAACIRLDPYANAFLPDGVSHPLKWSVNDVTQMQPGIGERKWEIDSLCYPIRLAHAYWRASDDIAPFDEDWRQAMHIVLRTFGEQQRLQTPGPYTFQRPALRATETLMLEGYGAPTRPNGMLHSMFRPSDDACTYPLSVPENLFAVITLRQLAAMSEAIHHDAAFASQCRSLAHEIAQATQQFGLMHDADNHPFWAYEVDGYGNQLFMDDANAPSLLSLAYLGCCTSTDPVFLRTRDLAWSARNPYFCQGRAAVGVGSPHTGRHTIWPMSLIHYALSSHDDTQIQHCLHWLKTTHAGTGFMHEAFHQDDPSTFTRSWFAWANSLFGELIVDLAQRKPHLLGVNRSAALLHG”, the protein production entry is listed as “failed”.
